Source: patent US11230591

Assays:
[1] = target: recombinant pentameric gH complex (Towne strain) (human cytomegalovirus, Towne strain) (UniProt P17176); assay: BLI competition on His-pentamer; competitor (antibody 2): 70.7
[2] = target: recombinant pentameric gH complex (Towne strain) (human cytomegalovirus, Towne strain) (UniProt P17176); assay: BLI competition on His-pentamer; competitor (antibody 2): 1-32
[3] = target: recombinant pentameric gH complex (Towne strain) (human cytomegalovirus, Towne strain) (UniProt P17176); assay: BLI competition on His-pentamer; competitor (antibody 2): 1-103
[4] = target: recombinant pentameric gH complex (Towne strain) (human cytomegalovirus, Towne strain) (UniProt P17176); assay: BLI competition on His-pentamer; competitor (antibody 2): 324.4
[5] = target: recombinant pentameric gH complex (Towne strain) (human cytomegalovirus, Towne strain) (UniProt P17176); assay: BLI competition on His-pentamer; competitor (antibody 2): 124.4
[6] = target: recombinant pentameric gH complex (Towne strain) (human cytomegalovirus, Towne strain) (UniProt P17176); assay: BLI competition on His-pentamer; competitor (antibody 2): 3-7
[7] = target: recombinant pentameric gH complex (Towne strain) (human cytomegalovirus, Towne strain) (UniProt P17176); assay: BLI competition on His-pentamer; competitor (antibody 2): 2-18
[8] = target: recombinant pentameric gH complex (Towne strain) (human cytomegalovirus, Towne strain) (UniProt P17176); assay: BLI competition on His-pentamer; competitor (antibody 2): 1-85
[9] = target: recombinant pentameric gH complex (Towne strain) (human cytomegalovirus, Towne strain) (UniProt P17176); assay: BLI competition on His-pentamer; competitor (antibody 2): 1-150
[10] = target: recombinant pentameric gH complex (Towne strain) (human cytomegalovirus, Towne strain) (UniProt P17176); assay: BLI competition on His-pentamer; competitor (antibody 2): 276.1
[11] = target: recombinant pentameric gH complex (Towne strain) (human cytomegalovirus, Towne strain) (UniProt P17176); assay: BLI competition on His-pentamer; competitor (antibody 2): 270.7
[12] = target: recombinant pentameric gH complex (Towne strain) (human cytomegalovirus, Towne strain) (UniProt P17176); assay: BLI competition on His-pentamer; competitor (antibody 2): 57.4
CMV virions = assay: virion ELISA
[13] = target: recombinant pentameric gH complex (Towne strain) (human cytomegalovirus, Towne strain) (UniProt P17176); assay: BLI competition on His-pentamer; competitor (antibody 2): 3-16
[14] = target: recombinant pentameric gH complex (Towne strain) (human cytomegalovirus, Towne strain) (UniProt P17176); assay: BLI competition on His-pentamer; competitor (antibody 2): 3-15
[15] = target: pentameric gH complex on infectious CMV (neutralization assays) (human cytomegalovirus); assay: cell-based or functional assay
[16] = target: recombinant pentameric gH complex (Towne strain) (human cytomegalovirus, Towne strain) (UniProt P17176); assay: BLI competition on His-pentamer; competitor (antibody 2): 2-25
[17] = target: recombinant pentameric gH complex (Towne strain) (human cytomegalovirus, Towne strain) (UniProt P17176); assay: BLI competition on His-pentamer; competitor (antibody 2): 316.2

Chain of recombinant pentameric gH complex (Towne strain) (human cytomegalovirus, Towne strain) (P17176 30-715, one chain of several): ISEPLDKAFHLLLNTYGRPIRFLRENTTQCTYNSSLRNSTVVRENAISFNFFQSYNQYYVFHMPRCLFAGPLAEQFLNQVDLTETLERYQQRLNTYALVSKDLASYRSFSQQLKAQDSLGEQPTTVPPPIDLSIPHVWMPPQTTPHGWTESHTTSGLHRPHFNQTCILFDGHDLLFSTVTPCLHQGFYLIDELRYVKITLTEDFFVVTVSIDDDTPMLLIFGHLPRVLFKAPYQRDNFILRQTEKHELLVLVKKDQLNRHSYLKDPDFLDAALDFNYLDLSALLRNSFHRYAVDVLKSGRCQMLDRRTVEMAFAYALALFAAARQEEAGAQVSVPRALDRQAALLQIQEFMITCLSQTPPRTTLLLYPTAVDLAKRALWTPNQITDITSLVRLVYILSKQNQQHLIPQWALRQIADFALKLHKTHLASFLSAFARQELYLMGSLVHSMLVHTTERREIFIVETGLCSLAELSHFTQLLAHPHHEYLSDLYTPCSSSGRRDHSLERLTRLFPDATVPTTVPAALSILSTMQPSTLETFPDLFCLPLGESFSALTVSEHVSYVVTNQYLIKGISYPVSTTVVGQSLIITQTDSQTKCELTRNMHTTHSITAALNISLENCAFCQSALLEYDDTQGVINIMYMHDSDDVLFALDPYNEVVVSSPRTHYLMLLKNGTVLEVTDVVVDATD

B1: 1-103 (antibody, V domains shown)
VH: QLQLQESGPGLVKPSETLSLTCSVSGDAISGSNYYWGWIRQPPGKGLQWIGSIYHTGSTFYNPSFSSRVTLSVDTSKNQFSLKLISVNAADTAVYYCARRIRGYSGTYDWGQGTLVTVSS
VL: DIQLTQSPSFLSASVGDRVTITCRASQDISSYVAWYQQKPGNAPKLLISSASTLPSGVPSRFSGSRSGTDFTLTISSLQPEDFATYYCQQLNNFGPGTTVDIK
Q: What does the source list for B1?
A: Pair-wise inhibition (%) [1]: -31%; Pair-wise inhibition (%) [2]: -12%; Pair-wise inhibition (%) [3]: 89%; Pair-wise inhibition (%) [4]: -19%; Pair-wise inhibition (%) [5]: -22%; Pair-wise inhibition (%) [6]: -12%; Pair-wise inhibition (%) [7]: -10%; Pair-wise inhibition (%) [8]: 6%; Pair-wise inhibition (%) [9]: -49%; Pair-wise inhibition (%) [10]: -2%; Pair-wise inhibition (%) [11]: -35%; Pair-wise inhibition (%) [12]: -4%; EC50 (CMV virions): 200 ng/mL; Pair-wise inhibition (%) [13]: -38%; Pair-wise inhibition (%) [14]: -7%; EC50 Neutralizing [15]: 4 ng/mL; IC50 in ARPE-19 [15]: 0.88 ng/mL; Pair-wise inhibition (%) [16]: -20%; Pair-wise inhibition (%) [17]: -28%
